Molecular target: T1, full-length protein LRP8 expressed in N2A cells transfected with a cDNA coding for LRP8 (Origene, Cat. No. … (human, UniProt Q14114 33-963))
T1 construct: Tested as a lysate of transfected N2A cells in SDS-PAGE and Western blot, not on intact cells; also called LRP8-FL; APOER2
T1 sequence: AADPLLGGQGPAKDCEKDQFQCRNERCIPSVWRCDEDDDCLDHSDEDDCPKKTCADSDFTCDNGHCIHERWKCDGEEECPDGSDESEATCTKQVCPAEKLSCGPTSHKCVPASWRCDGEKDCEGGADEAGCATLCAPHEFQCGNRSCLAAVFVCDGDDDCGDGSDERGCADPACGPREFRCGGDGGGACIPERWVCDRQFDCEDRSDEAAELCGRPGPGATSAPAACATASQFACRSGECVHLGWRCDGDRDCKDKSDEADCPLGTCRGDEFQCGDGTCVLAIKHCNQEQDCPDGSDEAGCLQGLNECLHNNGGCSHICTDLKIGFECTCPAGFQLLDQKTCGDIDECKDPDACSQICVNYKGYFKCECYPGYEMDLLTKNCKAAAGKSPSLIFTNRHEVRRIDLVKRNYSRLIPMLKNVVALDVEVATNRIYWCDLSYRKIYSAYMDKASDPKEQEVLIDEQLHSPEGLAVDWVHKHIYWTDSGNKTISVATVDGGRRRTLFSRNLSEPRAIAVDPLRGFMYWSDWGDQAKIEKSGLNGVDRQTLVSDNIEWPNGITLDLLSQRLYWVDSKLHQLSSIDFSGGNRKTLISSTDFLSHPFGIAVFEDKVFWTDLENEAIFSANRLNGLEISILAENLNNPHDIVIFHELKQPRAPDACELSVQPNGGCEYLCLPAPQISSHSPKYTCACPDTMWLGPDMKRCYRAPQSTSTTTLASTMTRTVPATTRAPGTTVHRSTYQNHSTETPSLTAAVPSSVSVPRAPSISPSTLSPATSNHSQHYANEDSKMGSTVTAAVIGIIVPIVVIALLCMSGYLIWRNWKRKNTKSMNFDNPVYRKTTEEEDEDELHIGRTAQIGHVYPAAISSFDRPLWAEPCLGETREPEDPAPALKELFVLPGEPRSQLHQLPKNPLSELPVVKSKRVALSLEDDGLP
Assay: Western blot, lysate of LRP8-transfected N2A cells, antibody at 1 µg/ml
From the text: The two lines of hybridomas described above develop antibodies that recognize both the entire protein LRP8 and its different C-terminal fragments. […] I.D. 5 and 9 with a cysteine at the C-terminus are able to produce antibodies that recognize both the protein LRP8 as such, and the fragments of 18-25 kDa, which are substrates of γ-secretase and different shorter fragments of 8-16 kDa, collectively defined as LICDs-derived intracellular domain LRP8, similar to the AICDs fragments derived from the cleavage of AβPP by γ-secretase or by other proteases such as those previously specified. The polyclonal antibodies (rabbit) GS1 and GS2 were made using SEQ I.D. 5 and SEQ I.D. 9, respectively. […] In lane 8 there is a negative control whereas in lane 9 the hybridization was performed using a commercial antibody vs LRP8 (Sigma Aldrich Cat No. SAB1306331) as a positive control. All the antibodies were used at the final concentration of 1 µg/ml. It is therefore clear that both the polyclonal antibodies and the antibodies of clones of hybridomas according to the present invention are able to identify not only the full-length protein LRP8 and the fragments from 18-25 kDa, but also advantageously the fragments 8-16 kDa, as indicated by the boxes in FIG. 3. […]

B1: monoclonal antibody of hybridoma 25F7F1 (antibody, V domains shown)
VH: EVQLQQSGPVLVKPGASVKMSCKASGYKFTDHFMNWVKKNHGKSLEWIGVINPYNGGTRLNPKFKGKATLTVDKSSSTVYMELNSLTFEDSAVYYCARETIDLAWFAYWGQGTLVTVSA
VL: DVLMTQTPPSLPVTLGDQASISCRSSQSIVYSNGKTYLEWYLQKPGQSPKLLMYKVSNRFSGVPDRFSGSGSGTDFTLKISSVEAEDLGIYYCFQGSHVPLTFGAGTKLELK
notes: Mouse (BALB/c) hybridoma monoclonal; also called antibody produced by 25F7F1 mouse hybridomas
- binding result: binds

From patent US12529705 (dated 2026)
